Test results reported in article PMC5764952 (2018).

Molecular target: Untagged murine saposin A (SapA) (mouse)
Assay: crystal structure; complex formed at pH 5.0 with the detergent LDAO, SapA:GALC molar ratio 2:1; crystals at 20 °C from 75 mM sodium citrate pH 5.6, 11% PEG 3350; 3.6 Å

Question: “Untagged murine saposin A (SapA) (natural protein)” was tested. Which stoichiometry N did it give?
Answer: The stoichiometry N was 2.
